We go through one substance from PMC9287174.

Test [1] has as its target StayGold (CU17S/V168A) (Cytaeis uchidae). As to the kind of experiment: pseudonative SDS-PAGE; non-heated protein samples separated on 10% polyacrylamide gels.
Test [2] shares this target. As to the kind of experiment: AUC; sedimentation equilibrium; purified recombinant StayGold at 2.8 uM in 50 mM HEPES-NaOH (pH 7.4), 24 C, absorbance at 497 nm.

Turning to “StayGold (CU17S/V168A) (natural protein)”, the stoichiometry N in test [1] and in test [2] was 2 each time.

As usually defined, the stoichiometry N is a count of units in the complex or per binding partner.
